Positions count from the first letter of the chain named.
T1: Recombinant Human IL-17 (human, UniProt Q16552 20-155, limits assumed)
T1 sequence (looked up): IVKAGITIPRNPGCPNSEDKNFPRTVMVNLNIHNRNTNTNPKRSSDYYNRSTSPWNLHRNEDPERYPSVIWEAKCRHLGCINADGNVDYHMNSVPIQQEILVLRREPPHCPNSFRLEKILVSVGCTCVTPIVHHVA

B1: DVD1274 (bispecific antibody, human IgG1, kappa)
heavy: not shown
light: DIQMTQSPSSLSASVGDRVTITCRASGNIHNYLTWYQQTPGKAPKLLIYNAKTLADGVPSRFSGSGSGTDYTFTISSLQPEDIATYYCQHFWSIPYTFGQGTKLQITRTVAAPEIVLTQSPDFQSVTPKEKVTITCRASQDIGSELHWYQQKPDQPPKLLIKYASHSTSGVPSRFSGSGSGTDFTLTINGLEAEDAGTYYCHQTDSLPYTFGPGTKVDIKRTVAAPSVFIFPPSDEQLKSGTASVVCLLNNFYPREAKVQWKVDNALQSGNSQESVTEQDSKDSTYSLSSTLTLSKADYEKHKVYACEVTHQGLSSPVTKSFNRGEC
B2: DVD1284 (bispecific antibody, human IgG1, kappa)
heavy: not shown
light: B1 light with D141N, P156S, T168I, G197A, T204S, S206T, Y209H, P213Q
B3: DVD1282 (bispecific antibody, human IgG1, kappa)
heavy: not shown
light: B1 light with D141N, P156S, T168I, G197A, T204S, S206T, Y209H, P213Q
B4: DVD1279 (bispecific antibody, human IgG1, kappa)
heavy: not shown
light: EIVLTQSPDFQSVTPKEKVTITCRASQDIGSELHWYQQKPDQPPKLLIKYASHSTSGVPSRFSGSGSGTDFTLTINGLEAEDAGTYYCHQTDSLPYTFGPGTKVDIKRTVAAPDTVVTQSPAFLSVTPGEKVTITCITSTDIDVDMNWYQQKPDQPPKLLISQGNTLRPGVPSRFSSSGSGTDFTFTISSLEAEDAATYYCLQSDNLPLTFGQGTKLEIKRTVAAPSVFIFPPSDEQLKSGTASVVCLLNNFYPREAKVQWKVDNALQSGNSQESVTEQDSKDSTYSLSSTLTLSKADYEKHKVYACEVTHQGLSSPVTKSFNRGEC
B5: DVD1273 (bispecific antibody, human IgG1, kappa)
heavy: not shown
light: EIVLTQSPDFQSVTPKEKVTITCRASQDIGSELHWYQQKPDQPPKLLIKYASHSTSGVPSRFSGSGSGTDFTLTINGLEAEDAGTYYCHQTDSLPYTFGPGTKVDIKRTVAAPDIQMTQSPSSLSASVGDRVTITCRASGNIHNYLTWYQQTPGKAPKLLIYNAKTLADGVPSRFSGSGSGTDYTFTISSLQPEDIATYYCQHFWSIPYTFGQGTKLQITRTVAAPSVFIFPPSDEQLKSGTASVVCLLNNFYPREAKVQWKVDNALQSGNSQESVTEQDSKDSTYSLSSTLTLSKADYEKHKVYACEVTHQGLSSPVTKSFNRGEC
B6: DVD1285 (bispecific antibody, human IgG1, kappa)
heavy: not shown
light: B5 light with D28N, P43S, T55I, G84A, T91S, S93T, Y96H, P100Q
B7: DVD1275 (bispecific antibody, human IgG1, kappa)
heavy: not shown
light: B5 light
B8: DVD1283 (bispecific antibody, human IgG1, kappa)
heavy: not shown
light: B5 light with D28N, P43S, T55I, G84A, T91S, S93T, Y96H, P100Q
B9: DVD1276 (bispecific antibody, human IgG1, kappa)
heavy: not shown
light: DTQVTQSPSSLSASVGDRVTITCITSTDIDVDMNWYQQKPGKPPKLLISQGNTLRPGVPSRFSSSGSGTDFTFTISSLQPEDFATYYCLQSDNLPLTFGQGTKLEIKRTVAAPEIVLTQSPDFQSVTPKEKVTITCRASQDIGSELHWYQQKPDQPPKLLIKYASHSTSGVPSRFSGSGSGTDFTLTINGLEAEDAGTYYCHQTDSLPYTFGPGTKVDIKRTVAAPSVFIFPPSDEQLKSGTASVVCLLNNFYPREAKVQWKVDNALQSGNSQESVTEQDSKDSTYSLSSTLTLSKADYEKHKVYACEVTHQGLSSPVTKSFNRGEC
B10: DVD1286 (bispecific antibody, human IgG1, kappa)
heavy: not shown
light: B9 light with D141N, P156S, T168I, G197A, T204S, S206T, Y209H, P213Q
B11: DVD1280 (bispecific antibody, human IgG1, kappa)
heavy: not shown
light: B9 light with D1E, Q3T
B12: DVD1277 (bispecific antibody, human IgG1, kappa)
heavy: not shown
light: EIVLTQSPDFQSVTPKEKVTITCRASQDIGSELHWYQQKPDQPPKLLIKYASHSTSGVPSRFSGSGSGTDFTLTINGLEAEDAGTYYCHQTDSLPYTFGPGTKVDIKRTVAAPDTQVTQSPSSLSASVGDRVTITCITSTDIDVDMNWYQQKPGKPPKLLISQGNTLRPGVPSRFSSSGSGTDFTFTISSLQPEDFATYYCLQSDNLPLTFGQGTKLEIKRTVAAPSVFIFPPSDEQLKSGTASVVCLLNNFYPREAKVQWKVDNALQSGNSQESVTEQDSKDSTYSLSSTLTLSKADYEKHKVYACEVTHQGLSSPVTKSFNRGEC
B13: DVD1281 (bispecific antibody, human IgG1, kappa)
heavy: not shown
light: B12 light with D114E, Q116T
B14: DVD1287 (bispecific antibody, human IgG1, kappa)
heavy: not shown
light: B12 light with D28N, P43S, T55I, G84A, T91S, S93T, Y96H, P100Q
B15: DVD1278 (bispecific antibody, human IgG1, kappa)
heavy: not shown
light: DTVVTQSPAFLSVTPGEKVTITCITSTDIDVDMNWYQQKPDQPPKLLISQGNTLRPGVPSRFSSSGSGTDFTFTISSLEAEDAATYYCLQSDNLPLTFGQGTKLEIKRTVAAPEIVLTQSPDFQSVTPKEKVTITCRASQDIGSELHWYQQKPDQPPKLLIKYASHSTSGVPSRFSGSGSGTDFTLTINGLEAEDAGTYYCHQTDSLPYTFGPGTKVDIKRTVAAPSVFIFPPSDEQLKSGTASVVCLLNNFYPREAKVQWKVDNALQSGNSQESVTEQDSKDSTYSLSSTLTLSKADYEKHKVYACEVTHQGLSSPVTKSFNRGEC

Each binder was assayed against T1, Recombinant Human IL-17 (assay: cell-based or functional assay).

Going from B1 to B2, the “C-terminal VD IL-17 Neutralization Assay EC50” value rises from 1080 pM to > 20000 pM.

First: B3
Second: B9
The “C-terminal VD IL-17 Neutralization Assay EC50” value of the first is higher: > 20000 pM for the first, 1210 pM for the second.

B10 and B11 are within 1.5-fold of each other in “C-terminal VD IL-17 Neutralization Assay EC50” value: 259 pM for the first, 256 pM for the second.

In the case of B15, the “C-terminal VD IL-17 Neutralization Assay EC50” value is reported as 346 pM.

First: B4
Second: B5
The “N-terminal VD IL-17 Neutralization Assay EC50” value of the first is 4-fold higher: 5.2 pM for the first, 1.3 pM for the second.

Going from B6 to B7, the “N-terminal VD IL-17 Neutralization Assay EC50” value falls from 2.1 pM to 0.6 pM (3.5-fold).

Going from B8 to B12, the “N-terminal VD IL-17 Neutralization Assay EC50” value falls from 23.8 pM to 9.2 pM (2.6-fold).

B13 and B14 are within 1.5-fold of each other in “N-terminal VD IL-17 Neutralization Assay EC50” value: 2.7 pM for the first, 3.5 pM for the second.

Each binder was assayed against Recombinant Human IL-1β (human, UniProt P01584 117-269) (assay: cell-based or functional assay).

B1 and B2 are within 1.5-fold of each other in “N-Terminal VD IL-1β Neutralization Assay EC50” value: 6.8 pM for the first, 6.5 pM for the second.

First: B3
Second: B9
The “N-Terminal VD IL-1β Neutralization Assay EC50” value of the first is 18-fold lower: 9.1 pM for the first, 168 pM for the second.

B10 and B11 are within 1.5-fold of each other in “N-Terminal VD IL-1β Neutralization Assay EC50” value: 165 pM for the first, 149 pM for the second.

In the case of B15, the “N-Terminal VD IL-1β Neutralization Assay EC50” value is reported as 145 pM.

Compared with B4, B5 is lower in “C-Terminal VD IL-1β Neutralization Assay EC50” value: > 200000 pM for the first, 18400 pM for the second.

Going from B6 to B7, the “C-Terminal VD IL-1β Neutralization Assay EC50” value rises from 1270 pM to 1920 pM (1.5-fold).

Compared with B8, B12 is higher in “C-Terminal VD IL-1β Neutralization Assay EC50” value: 7610 pM for the first, > 20000 pM for the second.

B13 and B14 cannot be ordered by “C-Terminal VD IL-1β Neutralization Assay EC50” value: > 150000 pM for the first, > 50000 pM for the second.

— patent US20120034160A1 (AbbVie / Abbott, published 2012)
